Like-named read-outs stand apart in the source and are kept apart here.
Key:
Assay in all cases: peptide array on glass slide, fluorescent secondary antibody
[1] = target: IsaA oligopeptide SEQ ID NO: 10 (Staphylococcus aureus)
[2] = target: IsaA oligopeptide SEQ ID NO: 17 (Staphylococcus aureus)
[3] = target: IsaA oligopeptide SEQ ID NO: 18 (Staphylococcus aureus)
[4] = target: IsaA oligopeptide SEQ ID NO: 22 (Staphylococcus aureus)
[5] = target: IsaA oligopeptide SEQ ID NO: 24 (Staphylococcus aureus)
[6] = target: IsaA oligopeptide SEQ ID NO: 32 (Staphylococcus aureus)
[7] = target: IsaA oligopeptide SEQ ID NO: 33 (Staphylococcus aureus)
[8] = target: IsaA oligopeptide SEQ ID NO: 37 (Staphylococcus aureus)
[9] = target: IsaA oligopeptide SEQ ID NO: 39 (Staphylococcus aureus)
[10] = target: IsaA oligopeptide SEQ ID NO: 41 (Staphylococcus aureus)
[11] = target: IsaA oligopeptide SEQ ID NO: 43 (Staphylococcus aureus)
[12] = target: IsaA oligopeptide SEQ ID NO: 44 (Staphylococcus aureus)
[13] = target: IsaA oligopeptide SEQ ID NO: 45 (Staphylococcus aureus)
[14] = target: IsaA oligopeptide SEQ ID NO: 49 (Staphylococcus aureus)
[15] = target: IsaA oligopeptide SEQ ID NO: 50 (Staphylococcus aureus)
[16] = target: IsaA oligopeptide SEQ ID NO: 51 (Staphylococcus aureus)
[17] = target: IsaA oligopeptide SEQ ID NO: 53 (Staphylococcus aureus)
[18] = target: IsaA oligopeptide SEQ ID NO: 55 (Staphylococcus aureus)
[19] = target: IsaA oligopeptide SEQ ID NO: 56 (Staphylococcus aureus)
[20] = target: IsaA oligopeptide SEQ ID NO: 57 (Staphylococcus aureus)
[21] = target: IsaA oligopeptide SEQ ID NO: 61 (Staphylococcus aureus)
[22] = target: IsaA oligopeptide SEQ ID NO: 63 (Staphylococcus aureus)
[23] = target: IsaA oligopeptide SEQ ID NO: 64 (Staphylococcus aureus)
[24] = target: IsaA oligopeptide SEQ ID NO: 9 (Staphylococcus aureus)
[25] = target: T1, IsaA oligopeptide SEQ ID NO: 17 (Staphylococcus aureus)
T1 construct: Synthetic 15-mer of IsaA, spotted on a glass slide
T1 peptide: NVDQAHLVDLAHNHQ
Method: (§1) Each oligopeptide was immobilized on a small spot on a glass side. Binding of the monoclonal antibodies secreted by the hybridoma cell line DSM ACC2987 and of control antibodies to these spots was examined upon incubation with these antibodies by binding of fluorescence labeled secondary antibodies and detecting fluorescence intensities.

[26] = target: T2, IsaA oligopeptide SEQ ID NO: 22 (Staphylococcus aureus)
T2 construct: Synthetic 15-mer of IsaA, spotted on a glass slide
T2 peptide: APIKDGAYDIHFVKD
Method: as §1

[27] = target: T3, IsaA oligopeptide SEQ ID NO: 26 (Staphylococcus aureus)
T3 construct: Synthetic 15-mer of IsaA, spotted on a glass slide
T3 peptide: FQYNFTSNGTTWSWS
Method: as §1

[28] = target: T4, IsaA oligopeptide SEQ ID NO: 27 (Staphylococcus aureus)
T4 construct: Synthetic 15-mer of IsaA, spotted on a glass slide
T4 peptide: FTSNGTTWSWSYEAA
Method: as §1

[29] = target: T5, IsaA oligopeptide SEQ ID NO: 33 (Staphylococcus aureus)
T5 construct: Synthetic 15-mer of IsaA, spotted on a glass slide
T5 peptide: VAGADYTTSYNQGSD
Method: as §1

[30] = target: T6, IsaA oligopeptide SEQ ID NO: 35 (Staphylococcus aureus)
T6 construct: Synthetic 15-mer of IsaA, spotted on a glass slide
T6 peptide: SYNQGSDVQSVSYNA
Method: as §1

[31] = target: T7, IsaA oligopeptide SEQ ID NO: 41 (Staphylococcus aureus)
T7 construct: Synthetic 15-mer of IsaA, spotted on a glass slide
T7 peptide: VSAPTYHNYSTSTTS
Method: as §1

[32] = target: T8, IsaA oligopeptide SEQ ID NO: 42 (Staphylococcus aureus)
T8 construct: Synthetic 15-mer of IsaA, spotted on a glass slide
T8 peptide: TYHNYSTSTTSSSVR
Method: as §1

[33] = target: T9, IsaA oligopeptide SEQ ID NO: 43 (Staphylococcus aureus)
T9 construct: Synthetic 15-mer of IsaA, spotted on a glass slide
T9 peptide: YSTSTTSSSVRLSNG
Method: as §1

[34] = target: T10, IsaA oligopeptide SEQ ID NO: 44 (Staphylococcus aureus)
T10 construct: Synthetic 15-mer of IsaA, spotted on a glass slide
T10 peptide: TTSSSVRLSNGNTAG
Method: as §1

[35] = target: T11, IsaA oligopeptide SEQ ID NO: 46 (Staphylococcus aureus)
T11 construct: Synthetic 15-mer of IsaA, spotted on a glass slide
T11 peptide: SNGNTAGATGSSAAQ
Method: as §1

[36] = target: T12, IsaA oligopeptide SEQ ID NO: 52 (Staphylococcus aureus)
T12 construct: Synthetic 15-mer of IsaA, spotted on a glass slide
T12 peptide: ASTWAAIIARESNGQ
Method: as §1

[37] = target: T13, IsaA oligopeptide SEQ ID NO: 58 (Staphylococcus aureus)
T13 construct: Synthetic 15-mer of IsaA, spotted on a glass slide
T13 peptide: SGLFQTMPGWGPTNT
Method: as §1

[38] = target: T14, IsaA oligopeptide SEQ ID NO: 59 (Staphylococcus aureus)
T14 construct: Synthetic 15-mer of IsaA, spotted on a glass slide
T14 peptide: QTMPGWGPTNTVDQQ
Method: as §1

[39] = target: T15, IsaA oligopeptide SEQ ID NO: 62 (Staphylococcus aureus)
T15 construct: Synthetic 15-mer of IsaA, spotted on a glass slide
T15 peptide: DQQINAAVKAYKAQG
Method: as §1

control antibodies (peptide array) (antibody)
Binding (fluorescence intensity) [1]: 160 | Binding (fluorescence intensity) [2]: 48 | Binding (fluorescence intensity) [3]: -119 | Binding (fluorescence intensity) [4]: 26.3 | Binding (fluorescence intensity) [5]: 79.3 | Binding (fluorescence intensity) [6]: 98.3 | Binding (fluorescence intensity) [7]: -0.7 | Binding (fluorescence intensity) [8]: -27.3 | Binding (fluorescence intensity) [9]: 109 | Binding (fluorescence intensity) [10]: 29.3 | Binding (fluorescence intensity) [11]: 44.3 | Binding (fluorescence intensity) [12]: 114 | Binding (fluorescence intensity) [13]: -4.3 | Binding (fluorescence intensity) [14]: 40 | Binding (fluorescence intensity) [15]: -49.7 | Binding (fluorescence intensity) [16]: 58 | Binding (fluorescence intensity) [17]: 70.3 | Binding (fluorescence intensity) [18]: 36 | Binding (fluorescence intensity) [19]: -17.3 | Binding (fluorescence intensity) [20]: 313 | Binding (fluorescence intensity) [21]: 30.3 | Binding (fluorescence intensity) [22]: 57.7 | Binding (fluorescence intensity) [23]: 42 | Binding (fluorescence intensity) [24]: 70

B1: monoclonal antibody MAB-UK-66 secreted by hybridoma cell line DSM ACC2987 (antibody, V domains shown)
VH: DVKLVESGGGLVKLGGSLKLSCSASGFTFSNYYMSWVRQTPEKRLELVADINGNGGSTYYPDTVKGRFTISRDNAKNTLYLQMSSLKSEDTALYYCVRRGGYYALDYWGQGTTVTVSS
VL: DVVMTQTPLSLPVSLGDQASISCRSSQSLVHINGNTYLHWYLQKPGQSPKLLIYRVSNRFSGVPDRFSGSGSGTDFTLKISRVEAEDLGVYFCSQSTHVPWTFGGGTKLELKR
notes: Monoclonal mouse antibody from a hybridoma; Detected with anti-mouse IgG; also called antibodies secreted by cell line DSM ACC2987; anti-IsaA MAB
Binding (fluorescence intensity) [25]: 17700 | Binding (fluorescence intensity) [26]: 21500 | Binding (fluorescence intensity) [27]: 51800 | Binding (fluorescence intensity) [28]: 442 | Binding (fluorescence intensity) [29]: 55500 | Binding (fluorescence intensity) [30]: 506 | Binding (fluorescence intensity) [31]: 421 | Binding (fluorescence intensity) [32]: 579 | Binding (fluorescence intensity) [33]: 371 | Binding (fluorescence intensity) [34]: 486 | Binding (fluorescence intensity) [35]: 587 | Binding (fluorescence intensity) [36]: 285 | Binding (fluorescence intensity) [37]: 1320 | Binding (fluorescence intensity) [38]: 1400 | Binding (fluorescence intensity) [39]: 551
